# Assay results published in IntAct's records for PubMed 24275654.
# B1: Tubulin beta-6 chain (Homo sapiens), Q9BUF5 (parent)
# chain: MREIVHIQAGQCGNQIGTKFWEVISDEHGIDPAGGYVGDSALQLERINVYYNESSSQKYVPRAALVDLEPGTMDSVRSGPFGQLFRPDNFIFGQTGAGNNWAKGHYTEGAELVDAVLDVVRKECEHCDCLQGFQLTHSLGGGTGSGMGTLLISKIREEFPDRIMNTFSVMPSPKVSDTVVEPYNATLSVHQLVENTDETYCIDNEALYDICFRTLKLTTPTYGDLNHLVSATMSGVTTSLRFPGQLNADLRKLAVNMVPFPRLHFFMPGFAPLTSRGSQQYRALTVPELTQQMFDARNMMAACDPRHGRYLTVATVFRGPMSMKEVDEQMLAIQSKNSSYFVEWIPNNVKVAVCDIPPRGLKMASTFIGNSTAIQELFKRISEQFSAMFRRKAFLHWFTGEGMDEMEFTEAESNMNDLVSEYQQYQDATANDGEEAFEDEEEEIDG
# B2: Tubulin beta-4A chain (Homo sapiens), P04350 (parent)
# chain: MREIVHLQAGQCGNQIGAKFWEVISDEHGIDPTGTYHGDSDLQLERINVYYNEATGGNYVPRAVLVDLEPGTMDSVRSGPFGQIFRPDNFVFGQSGAGNNWAKGHYTEGAELVDAVLDVVRKEAESCDCLQGFQLTHSLGGGTGSGMGTLLISKIREEFPDRIMNTFSVVPSPKVSDTVVEPYNATLSVHQLVENTDETYCIDNEALYDICFRTLKLTTPTYGDLNHLVSATMSGVTTCLRFPGQLNADLRKLAVNMVPFPRLHFFMPGFAPLTSRGSQQYRALTVPELTQQMFDAKNMMAACDPRHGRYLTVAAVFRGRMSMKEVDEQMLSVQSKNSSYFVEWIPNNVKTAVCDIPPRGLKMAATFIGNSTAIQELFKRISEQFTAMFRRKAFLHWYTGEGMDEMEFTEAESNMNDLVSEYQQYQDATAEEGEFEEEAEEEVA
# B3: Tubulin beta chain (Homo sapiens), P07437 (parent)
# chain: MREIVHIQAGQCGNQIGAKFWEVISDEHGIDPTGTYHGDSDLQLDRISVYYNEATGGKYVPRAILVDLEPGTMDSVRSGPFGQIFRPDNFVFGQSGAGNNWAKGHYTEGAELVDSVLDVVRKEAESCDCLQGFQLTHSLGGGTGSGMGTLLISKIREEYPDRIMNTFSVVPSPKVSDTVVEPYNATLSVHQLVENTDETYCIDNEALYDICFRTLKLTTPTYGDLNHLVSATMSGVTTCLRFPGQLNADLRKLAVNMVPFPRLHFFMPGFAPLTSRGSQQYRALTVPELTQQVFDAKNMMAACDPRHGRYLTVAAVFRGRMSMKEVDEQMLNVQNKNSSYFVEWIPNNVKTAVCDIPPRGLKMAVTFIGNSTAIQELFKRISEQFTAMFRRKAFLHWYTGEGMDEMEFTEAESNMNDLVSEYQQYQDATAEEEEDFGEEAEEEA
# Variants of: B1
# Conditions: with lrrk2_human LRRK2, Q5S007
# Sequence of lrrk2_human LRRK2, Q5S007 (Q5S007 whole entry): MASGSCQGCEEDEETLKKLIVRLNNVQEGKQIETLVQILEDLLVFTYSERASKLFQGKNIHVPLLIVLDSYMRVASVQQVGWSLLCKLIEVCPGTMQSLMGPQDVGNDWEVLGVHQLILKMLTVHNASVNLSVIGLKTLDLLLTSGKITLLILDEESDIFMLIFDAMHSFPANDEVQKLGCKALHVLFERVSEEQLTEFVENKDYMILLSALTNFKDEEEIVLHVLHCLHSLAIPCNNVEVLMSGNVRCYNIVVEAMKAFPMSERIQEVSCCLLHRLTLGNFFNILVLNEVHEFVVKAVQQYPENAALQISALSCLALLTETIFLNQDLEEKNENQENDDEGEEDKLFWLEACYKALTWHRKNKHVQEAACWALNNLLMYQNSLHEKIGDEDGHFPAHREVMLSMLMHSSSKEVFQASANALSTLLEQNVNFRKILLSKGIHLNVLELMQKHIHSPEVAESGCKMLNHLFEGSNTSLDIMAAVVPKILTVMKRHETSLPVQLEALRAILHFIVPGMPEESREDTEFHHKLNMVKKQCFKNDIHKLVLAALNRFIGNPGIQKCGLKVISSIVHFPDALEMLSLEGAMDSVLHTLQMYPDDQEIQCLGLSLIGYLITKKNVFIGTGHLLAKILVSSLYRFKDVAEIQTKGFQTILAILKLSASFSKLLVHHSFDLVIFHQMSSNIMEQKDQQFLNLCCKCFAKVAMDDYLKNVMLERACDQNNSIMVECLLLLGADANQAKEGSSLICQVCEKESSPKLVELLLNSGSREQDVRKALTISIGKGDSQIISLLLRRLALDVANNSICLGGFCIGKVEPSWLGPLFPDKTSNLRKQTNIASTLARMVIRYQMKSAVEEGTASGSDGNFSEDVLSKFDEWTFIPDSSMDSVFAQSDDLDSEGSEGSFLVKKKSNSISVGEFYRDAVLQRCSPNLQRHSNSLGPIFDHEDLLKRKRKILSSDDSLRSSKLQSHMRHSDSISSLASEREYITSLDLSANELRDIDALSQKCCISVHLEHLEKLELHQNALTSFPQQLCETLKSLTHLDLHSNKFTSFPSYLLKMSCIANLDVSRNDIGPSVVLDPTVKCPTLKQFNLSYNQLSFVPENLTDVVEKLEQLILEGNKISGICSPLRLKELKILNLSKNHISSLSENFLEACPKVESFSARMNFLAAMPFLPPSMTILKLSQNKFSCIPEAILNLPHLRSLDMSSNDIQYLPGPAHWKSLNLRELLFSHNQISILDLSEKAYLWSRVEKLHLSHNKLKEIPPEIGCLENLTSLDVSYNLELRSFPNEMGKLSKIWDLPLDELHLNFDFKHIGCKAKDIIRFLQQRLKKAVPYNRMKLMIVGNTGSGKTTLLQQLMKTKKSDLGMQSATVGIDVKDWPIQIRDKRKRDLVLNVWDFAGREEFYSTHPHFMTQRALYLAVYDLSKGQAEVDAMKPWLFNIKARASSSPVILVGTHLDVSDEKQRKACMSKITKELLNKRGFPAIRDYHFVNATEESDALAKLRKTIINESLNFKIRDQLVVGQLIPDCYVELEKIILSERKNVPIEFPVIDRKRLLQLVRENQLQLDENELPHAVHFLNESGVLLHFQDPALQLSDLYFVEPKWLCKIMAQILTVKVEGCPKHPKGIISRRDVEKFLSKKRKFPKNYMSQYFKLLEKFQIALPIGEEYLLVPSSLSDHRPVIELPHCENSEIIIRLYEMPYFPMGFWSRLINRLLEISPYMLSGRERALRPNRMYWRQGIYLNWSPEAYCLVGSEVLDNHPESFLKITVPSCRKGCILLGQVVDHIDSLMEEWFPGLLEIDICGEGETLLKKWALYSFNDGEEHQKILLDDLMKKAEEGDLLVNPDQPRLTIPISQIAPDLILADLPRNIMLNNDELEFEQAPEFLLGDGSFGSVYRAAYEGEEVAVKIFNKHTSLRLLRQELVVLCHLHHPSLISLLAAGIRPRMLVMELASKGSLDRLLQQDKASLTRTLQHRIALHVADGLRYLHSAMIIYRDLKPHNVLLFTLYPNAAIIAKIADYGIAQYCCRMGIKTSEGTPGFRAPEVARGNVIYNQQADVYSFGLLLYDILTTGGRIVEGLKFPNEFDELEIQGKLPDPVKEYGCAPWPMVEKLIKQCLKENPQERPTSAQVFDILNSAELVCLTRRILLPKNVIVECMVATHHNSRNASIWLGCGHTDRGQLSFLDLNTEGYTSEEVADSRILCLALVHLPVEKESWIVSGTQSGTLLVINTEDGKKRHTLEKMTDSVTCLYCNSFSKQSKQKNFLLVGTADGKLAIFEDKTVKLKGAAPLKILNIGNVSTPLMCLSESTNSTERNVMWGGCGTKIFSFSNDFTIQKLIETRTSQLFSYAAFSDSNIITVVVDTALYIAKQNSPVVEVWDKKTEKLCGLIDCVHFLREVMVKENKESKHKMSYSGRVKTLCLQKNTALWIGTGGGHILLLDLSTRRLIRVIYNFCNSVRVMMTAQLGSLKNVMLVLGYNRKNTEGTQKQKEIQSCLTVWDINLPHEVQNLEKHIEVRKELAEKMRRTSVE
row,effect of a mutation on the interaction,Variant
1,disrupting interaction,MREIVHIQAGQCGNQIGTKFWEVISDEHGIDPAGGYVGDSALQLERINVYYNESSSQKYVPRAALVDLEPGTMDSVRSGPFGQLFRPDNFIFGQTGAGNNWAKGHYTEGAELVDAVLDVVRKECEHCDCLQGFQLTHSLGGGTGSGMGTLLISKIREEFPDRIMNTFSVMPSPKVSDTVVEPYNATLSVHQLVENTDETYCIDNEALYDICFRTLKLTTPTYGDLNHLVSATMSGVTTSLRFPGQLNADLRKLAVNMVPFPRLHFFMPGFAPLTSRGSQQYRALTVPELTQQMFDARNMMAACDPRHGRYLTVATVFRGRMSMKEVDEQMLAIQSKNSSYFVEWIPNNVKVAVCDIPPRGLSMASTFIGNSTAIQELFKRISEQFSAMFRRKAFLHWFTGEGMDEMEFTEAESNMNDLVSEYQQYQDATANDGEEAFEDEEEEIDG [P320R;K362S]
2,disrupting interaction,MREIVHIQAGQCGNQIGTKFWEVISDEHGIDPAGGYVGDSALQLERINVYYNESSSQKYVPRAALVDLEPGTMDSVRSGPFGQLFRPDNFIFGQTGAGNNWAKGHYTEGAELVDAVLDVVRKECEHCDCLQGFQLTHSLGGGTGSGMGTLLISKIREEFPDRIMNTFSVMPSPKVSDTVVEPYNATLSVHQLVENTDETYCIDNEALYDICFRTLKLTTPTYGDLNHLVSATMSGVTTSLRFPGQLNADLRKLAVNMVPFPRLHFFMPGFAPLTSRGSQQYRALTVPELTQQMFDARNMMAACDPRHGRYLTVATVFRGRMSMKEVDEQMLAIQSKNSSYFVEWIPNNVKVAVCDIPPRGLKMSSTFIGNSTAIQELFKRISEQFSAMFRRKAFLHWFTGEGMDEMEFTEAESNMNDLVSEYQQYQDATANDGEEAFEDEEEEIDG [P320R;A364S]

# Variants of: B2
# Conditions: with lrrk2_human LRRK2, Q5S007
row,effect of a mutation on the interaction,Variant
1,disrupting interaction,MREIVHLQAGQCGNQIGAKFWEVISDEHGIDPTGTYHGDSDLQLERINVYYNEATGGNYVPRAVLVDLEPGTMDSVRSGPFGQIFRPDNFVFGQSGAGNNWAKGHYTEGAELVDAVLDVVRKEAESCDCLQGFQLTHSLGGGTGSGMGTLLISKIREEFPDRIMNTFSVVPSPKVSDTVVEPYNATLSVHQLVENTDETYCIDNEALYDICFRTLKLTTPTYGDLNHLVSATMSGVTTCLRFPGQLNADLRKLAVNMVPFPRLHFFMPGFAPLTSRGSQQYRALTVPELTQQMFDAKNMMAACDPRHGRYLTVAAVFRGRMSMKEVDEQMLSVQSKNSSYFVEWIPNNVKTAVCDIPPRGLKMEATFIGNSTAIQELFKRISEQFTAMFRRKAFLHWYTGEGMDEMEFTEAESNMNDLVSEYQQYQDATAEEGEFEEEAEEEVA [A364E]
2,disrupting interaction,MREIVHLQAGQCGNQIGAKFWEVISDEHGIDPTGTYHGDSDLQLERINVYYNEATGGNYVPRAVLVDLEPGTMDSVRSGPFGQIFRPDNFVFGQSGAGNNWAKGHYTEGAELVDAVLDVVRKEAESCDCLQGFQLTHSLGGGTGSGMGTLLISKIREEFPDRIMNTFSVVPSPKVSDTVVEPYNATLSVHQLVENTDETYCIDNEALYDICFRTLKLTTPTYGDLNHLVSATMSGVTTCLRFPGQLNADLRKLAVNMVPFPRLHFFMPGFAPLTSRGSQQYRALTVPELTQQMFDAKNMMAACDPRHGRYLTVAAVFRGRMSMKEVDEQMLSVQSKNSSYFVEWIPNNVKTAVCDIPPRGLKMDATFIGNSTAIQELFKRISEQFTAMFRRKAFLHWYTGEGMDEMEFTEAESNMNDLVSEYQQYQDATAEEGEFEEEAEEEVA [A364D]
3,disrupting interaction,MREIVHLQAGQCGNQIGAKFWEVISDEHGIDPTGTYHGDSDLQLERINVYYNEATGGNYVPRAVLVDLEPGTMDSVRSGPFGQIFRPDNFVFGQSGAGNNWAKGHYTEGAELVDAVLDVVRKEAESCDCLQGFQLTHSLGGGTGSGMGTLLISKIREEFPDRIMNTFSVVPSPKVSDTVVEPYNATLSVHQLVENTDETYCIDNEALYDICFRTLKLTTPTYGDLNHLVSATMSGVTTCLRFPGQLNADLRKLAVNMVPFPRLHFFMPGFAPLTSRGSQQYRALTVPELTQQMFDAKNMMAACDPRHGRYLTVAAVFRGRMSMKEVDEQMLSVQSKNSSYFVEWIPNNVKTAVCDIPPRGLKMSATFIGNSTAIQELFKRISEQFTAMFRRKAFLHWYTGEGMDEMEFTEAESNMNDLVSEYQQYQDATAEEGEFEEEAEEEVA [A364S]

# Variants of: B3
# Conditions: with lrrk2_human LRRK2, Q5S007
row,effect of a mutation on the interaction,Variant
1,disrupting interaction,MREIVHIQAGQCGNQIGAKFWEVISDEHGIDPTGTYHGDSDLQLDRISVYYNEATGGKYVPRAILVDLEPGTMDSVRSGPFGQIFRPDNFVFGQSGAGNNWAKGHYTEGAELVDSVLDVVRKEAESCDCLQGFQLTHSLGGGTGSGMGTLLISKIREEYPDRIMNTFSVVPSPKVSDTVVEPYNATLSVHQLVENTDETYCIDNEALYDICFRTLKLTTPTYGDLNHLVSATMSGVTTCLRFPGQLNADLRKLAVNMVPFPRLHFFMPGFAPLTSRGSQQYRALTVPELTQQVFDAKNMMAACDPRHGRYLTVAAVFRGRMSMKEVDEQMLNVQNKNSSYFVEWIPNNVKTAVCDIPPRGLKMDVTFIGNSTAIQELFKRISEQFTAMFRRKAFLHWYTGEGMDEMEFTEAESNMNDLVSEYQQYQDATAEEEEDFGEEAEEEA [A364D]
2,disrupting interaction,MREIVHIQAGQCGNQIGAKFWEVISDEHGIDPTGTYHGDSDLQLDRISVYYNEATGGKYVPRAILVDLEPGTMDSVRSGPFGQIFRPDNFVFGQSGAGNNWAKGHYTEGAELVDSVLDVVRKEAESCDCLQGFQLTHSLGGGTGSGMGTLLISKIREEYPDRIMNTFSVVPSPKVSDTVVEPYNATLSVHQLVENTDETYCIDNEALYDICFRTLKLTTPTYGDLNHLVSATMSGVTTCLRFPGQLNADLRKLAVNMVPFPRLHFFMPGFAPLTSRGSQQYRALTVPELTQQVFDAKNMMAACDPRHGRYLTVAAVFRGRMSMKEVDEQMLNVQNKNSSYFVEWIPNNVKTAVCDIPPRGLKMSVTFIGNSTAIQELFKRISEQFTAMFRRKAFLHWYTGEGMDEMEFTEAESNMNDLVSEYQQYQDATAEEEEDFGEEAEEEA [A364S]
3,disrupting interaction,MREIVHIQAGQCGNQIGAKFWEVISDEHGIDPTGTYHGDSDLQLDRISVYYNEATGGKYVPRAILVDLEPGTMDSVRSGPFGQIFRPDNFVFGQSGAGNNWAKGHYTEGAELVDSVLDVVRKEAESCDCLQGFQLTHSLGGGTGSGMGTLLISKIREEYPDRIMNTFSVVPSPKVSDTVVEPYNATLSVHQLVENTDETYCIDNEALYDICFRTLKLTTPTYGDLNHLVSATMSGVTTCLRFPGQLNADLRKLAVNMVPFPRLHFFMPGFAPLTSRGSQQYRALTVPELTQQVFDAKNMMAACDPRHGRYLTVAAVFRGRMSMKEVDEQMLNVQNKNSSYFVEWIPNNVKTAVCDIPPRGLKMEVTFIGNSTAIQELFKRISEQFTAMFRRKAFLHWYTGEGMDEMEFTEAESNMNDLVSEYQQYQDATAEEEEDFGEEAEEEA [A364E]
